Measurements reported in patent US20050106100A1, “Compounds containing matrix metalloproteinase substrates and methods of their use” (priority 2003, published 2005).

What was measured:
[1] = tested on: CC(=O)N1CCC[C@H]1C(=O)N[C@@H](CCCN)C(=O)NCC(=O)N[C@@H](CCc1ccccc1)C(=O)N[C@@H](CC(C)C)C(=O)NNC(=O)c1ccc(N/N=C/c2ccccc2S(=O)(=O)O)nc1; assay: Kinetic measurements of substrate hydrolysis by active MMP-9 (radio HPLC assay); type: biochemical, human; conditions: other: active MMP-9 final concentration 2 nM, 37° C., 60 minutes, radiolabeled test substrate, pH 7.5
Experimental: (§1) Purified MMP-2 (10 μg) or MMP-9 (10 μg) were reconstituted in 100 μL of TCN buffer. […] Pro-MMP-2 was activated by incubation with 2 nM APMA for 2 hours at 37° C. At the end of incubation 100 μl of 100% glycerol was added to active MMP-2 and active MMP-9 (final concentration 50% glycerol). Active MMP-2 and active MMP-9 were aliquoted and stored at −20° C.
(§2) The level of active protease was always quantified by active site titration studies prior to kinetic studies. The active site of MMP-9 and MMP-2 was titrated using the GM6001 dissolved in 100% DMSO at a stock concentration of 2.5 mM. Dilutions (1:2) of GM6001 were prepared in TCN buffer to give a final concentration of 5 nM to 0.04 nM GM6001 in the active site titration assay. Activated MMP-2 or activated MMP-9 (2 nM) was preincubated with increasing concentrations of GM60001 at 37° C. for 15 minutes in 96 well black microtiter plates. […] Plates were read on fluorescence spectrophotometer at excitation wavelength of 320 nm and emission wavelength of 395 nm. The concentration of the active enzyme was determined using the Morrison equation and Kaleidagraph software (Reading, Pa.).
(§3) The kinetic parameters of substrate hydrolysis were determined using a radio HPLC assay. The turnover of different substrates by active MMP-2 and active MMP-9 was determined using this assay. […] The radiolabel was detected by a IN/US beta ram detector. […]

[2] = tested on: CC(=O)N1CCC[C@H]1C(=O)N[C@@H](CC(C)C)C(=O)NCC(=O)N[C@@H](CCc1ccccc1)C(=O)N[C@@H](Cc1ccc(O)cc1)C(=O)N[C@@H](CC(C)C)C(=O)NNC(=O)c1ccc(N/N=C/c2ccccc2S(=O)(=O)ON)nc1; assay: as above; type: biochemical, human; conditions: other: active MMP-9 final concentration 2 nM, 37° C., 60 minutes, radiolabeled test substrate, pH 7.5
Experimental: as §1, §2, §3

Chain of MMP-9 (Homo sapiens) (chain, as listed by the source): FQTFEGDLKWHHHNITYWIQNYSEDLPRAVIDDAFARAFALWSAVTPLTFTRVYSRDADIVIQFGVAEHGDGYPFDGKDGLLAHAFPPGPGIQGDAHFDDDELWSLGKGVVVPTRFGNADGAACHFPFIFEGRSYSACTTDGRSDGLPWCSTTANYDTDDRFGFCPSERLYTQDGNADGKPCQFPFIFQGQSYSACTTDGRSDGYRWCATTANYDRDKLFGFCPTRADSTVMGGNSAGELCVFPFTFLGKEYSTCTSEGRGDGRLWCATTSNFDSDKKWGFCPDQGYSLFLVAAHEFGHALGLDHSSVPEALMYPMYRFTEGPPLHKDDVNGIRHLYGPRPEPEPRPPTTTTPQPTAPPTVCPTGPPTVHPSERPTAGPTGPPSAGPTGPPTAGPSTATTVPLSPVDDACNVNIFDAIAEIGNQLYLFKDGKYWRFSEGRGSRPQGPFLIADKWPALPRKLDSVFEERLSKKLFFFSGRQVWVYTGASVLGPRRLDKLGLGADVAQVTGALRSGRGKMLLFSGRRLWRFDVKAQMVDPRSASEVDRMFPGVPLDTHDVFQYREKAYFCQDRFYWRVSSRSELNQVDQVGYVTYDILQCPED

**Q.** MMP-9 (Homo sapiens) was tested. Which kcat/Km [1] did it give?
**A.** 4450 M⁻¹ s⁻¹

**Q.** And the kcat/Km [2]?
**A.** > 100000 M⁻¹ s⁻¹
